Assay results reported in PMC9569990 (International Journal of Molecular Sciences, 2022).

What was measured:
Test in all cases: SPR; cytokine immobilised on ProteOn GLH sensor chip by amine coupling (9,000-14,000 RU); S100P (wild type or mutant) as analyte, 62 nM-16 µM; 25 °C; 10 mM HEPES, 150 mM NaCl, 1 mM CaCl2, 0.05% TWEEN 20, pH 7.4; heterogeneous ligand model (two ligand populations), one-site model for IL-13; values averaged over analyte concentrations (n = 3-5)
Conditions in all cases: both partners purified
Interleukin-5 = biological target: T1, Interleukin-5 (human, UniProt P05113 20-134)
T1 construct: Interleukin-5, human, UniProt P05113; also called IL-5; source: bought: PeproTech (source E. coli)
T1 sequence (P05113 20-134): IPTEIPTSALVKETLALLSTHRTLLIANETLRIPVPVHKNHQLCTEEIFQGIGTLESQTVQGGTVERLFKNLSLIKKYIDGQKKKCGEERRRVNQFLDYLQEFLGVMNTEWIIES

Interleukin-35 = biological target: T2, Interleukin-35 (human, UniProt P29459 23-219; Q14213 21-229)
T2 construct: the chain used for the SCOP family assignment; also called IL-35; source: bought: PeproTech (source HEK293)
T2 sequence (looked up) 1: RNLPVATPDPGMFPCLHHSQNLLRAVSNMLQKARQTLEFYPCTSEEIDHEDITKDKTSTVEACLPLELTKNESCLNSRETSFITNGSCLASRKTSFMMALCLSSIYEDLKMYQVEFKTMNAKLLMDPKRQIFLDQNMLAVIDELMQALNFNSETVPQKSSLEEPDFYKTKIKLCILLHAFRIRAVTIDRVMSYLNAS
T2 sequence (looked up) 2: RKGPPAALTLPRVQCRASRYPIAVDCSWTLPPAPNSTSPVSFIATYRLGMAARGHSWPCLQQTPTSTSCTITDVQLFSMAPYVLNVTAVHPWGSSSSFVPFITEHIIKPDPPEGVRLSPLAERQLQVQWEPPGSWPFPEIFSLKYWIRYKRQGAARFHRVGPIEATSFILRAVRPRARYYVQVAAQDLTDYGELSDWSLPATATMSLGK

Interleukin-24 = biological target: T3, Interleukin-24 (human, UniProt Q13007 52-206)
T3 construct: Interleukin-24, human, UniProt Q13007; see the manufacturer's catalogue number; also called IL-24; source: bought: PeproTech (source CHO)
T3 sequence (looked up): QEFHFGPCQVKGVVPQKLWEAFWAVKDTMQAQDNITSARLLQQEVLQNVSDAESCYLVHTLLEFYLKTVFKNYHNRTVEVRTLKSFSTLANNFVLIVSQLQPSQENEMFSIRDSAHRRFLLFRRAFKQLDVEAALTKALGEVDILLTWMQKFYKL

Interleukin-26 = biological target: T4, Interleukin-26 (human, UniProt Q9NPH9 22-171)
T4 construct: Interleukin-26, human, UniProt Q9NPH9; see the manufacturer's catalogue number; also called IL-26; source: bought: R&D Systems (source E. coli)
T4 sequence (looked up): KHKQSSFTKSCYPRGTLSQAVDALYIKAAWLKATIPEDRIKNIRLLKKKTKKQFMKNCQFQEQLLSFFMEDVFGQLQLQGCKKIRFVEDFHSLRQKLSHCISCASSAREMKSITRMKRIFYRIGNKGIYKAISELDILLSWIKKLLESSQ

Interleukin-31 = biological target: T5, Interleukin-31 (human, UniProt Q6EBC2 24-164)
T5 construct: Interleukin-31, human, UniProt Q6EBC2; see the manufacturer's catalogue number; also called IL-31; source: bought: PeproTech (source E. coli)
T5 sequence (looked up): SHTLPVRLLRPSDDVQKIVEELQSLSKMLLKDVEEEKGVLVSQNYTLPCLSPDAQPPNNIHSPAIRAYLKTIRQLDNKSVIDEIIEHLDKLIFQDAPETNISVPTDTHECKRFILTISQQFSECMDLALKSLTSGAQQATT

Prolactin = biological target: T6, Prolactin (human, UniProt P01236 29-227)
T6 construct: Prolactin, human, UniProt P01236; see the manufacturer's catalogue number; also called PRL; source: bought: PeproTech (source E. coli)
T6 sequence (looked up): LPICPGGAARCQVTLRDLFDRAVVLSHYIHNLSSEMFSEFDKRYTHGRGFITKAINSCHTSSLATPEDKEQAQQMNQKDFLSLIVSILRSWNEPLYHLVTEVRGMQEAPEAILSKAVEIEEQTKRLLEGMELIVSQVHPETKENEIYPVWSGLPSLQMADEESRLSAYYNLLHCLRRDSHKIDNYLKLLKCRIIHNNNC

B1: Human S100P protein (recombinant, Ca^2+-loaded) (natural protein)
chain: MTELETAMGMIIDVFSRYSGSEGSTQTLTKGELKVLMEKELPGFLQSGKDKDAVDKLLKDLDANGDAQVDFSEFIVFVAAITSACHKYFEKAGLK
notes: S100P protein, human, recombinant; probably the whole 95-residue protein (surmise); also called wild-type S100P; WT S100P; source: E. coli, prepared as previously described [28]
Kd1 (heterogeneous ligand model, population 1) (Interleukin-5): 3.66 nM | Kd2 (heterogeneous ligand model, population 2) (Interleukin-5): 833 nM | kd1 (heterogeneous ligand model, population 1) (Interleukin-5): 0.000612 s⁻¹ | kd2 (heterogeneous ligand model, population 2) (Interleukin-5): 0.00712 s⁻¹ | Kd1 (heterogeneous ligand model, population 1) (Interleukin-35): 96.2 nM | Kd2 (heterogeneous ligand model, population 2) (Interleukin-35): 255 nM | kd1 (heterogeneous ligand model, population 1) (Interleukin-35): 0.000531 s⁻¹ | kd2 (heterogeneous ligand model, population 2) (Interleukin-35): 0.012 s⁻¹ | Kd1 (heterogeneous ligand model, population 1) (Interleukin-24): 158 nM | Kd2 (heterogeneous ligand model, population 2) (Interleukin-24): 918 nM | kd1 (heterogeneous ligand model, population 1) (Interleukin-24): 0.000483 s⁻¹ | kd2 (heterogeneous ligand model, population 2) (Interleukin-24): 0.00794 s⁻¹ | Kd1 (heterogeneous ligand model, population 1) (Interleukin-26): 9.02 nM | Kd2 (heterogeneous ligand model, population 2) (Interleukin-26): 1.32 µM | kd1 (heterogeneous ligand model, population 1) (Interleukin-26): 0.000144 s⁻¹ | kd2 (heterogeneous ligand model, population 2) (Interleukin-26): 0.00509 s⁻¹ | Kd1 (heterogeneous ligand model, population 1) (Interleukin-31): 25.2 nM | Kd2 (heterogeneous ligand model, population 2) (Interleukin-31): 202 nM | kd1 (heterogeneous ligand model, population 1) (Interleukin-31): 0.00023 s⁻¹ | kd2 (heterogeneous ligand model, population 2) (Interleukin-31): 0.0583 s⁻¹ | Kd1 (heterogeneous ligand model, population 1) (Prolactin): 54.6 nM | Kd2 (heterogeneous ligand model, population 2) (Prolactin): 906 nM | kd1 (heterogeneous ligand model, population 1) (Prolactin): 0.000981 s⁻¹ | kd2 (heterogeneous ligand model, population 2) (Prolactin): 0.0103 s⁻¹
